Reference: patent publication US20240425607A1 (published 2024)
Residue numbers refer to the chain shown, from its start. Blank lines part the entries; values can stand above or below the binder they belong to.

Assays:
[1] = molecular target: T1, human IL-18BP (recombinant, construct not stated) (UniProt O95998 31-194); assay: blocking ELISA
T1 chain: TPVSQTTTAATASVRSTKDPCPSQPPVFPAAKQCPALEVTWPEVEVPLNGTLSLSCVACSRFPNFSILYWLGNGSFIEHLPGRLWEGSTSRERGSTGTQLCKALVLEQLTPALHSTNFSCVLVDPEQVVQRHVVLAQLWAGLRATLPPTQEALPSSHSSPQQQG

[2] = molecular target: Cyno IL18-IL18BP (cynomolgus monkey); assay: blocking ELISA

IC50 [1]: 0.278 µg/mL
B1: ADI-66692 (antibody, V domains shown)
VH: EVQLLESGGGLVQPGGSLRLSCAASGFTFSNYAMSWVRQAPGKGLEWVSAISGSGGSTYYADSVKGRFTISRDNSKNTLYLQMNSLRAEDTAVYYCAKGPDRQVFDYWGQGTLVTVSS
VL: DIQMTQSPSSVSASVGDRVTITCRASQGIDSWLAWYQQKPGKAPKLLIYAASSLQSGVPSRFSGSGSGTDFTLTISSLQPEDFATYYCQHAYSFPYTFGGGTKVEIK

IC50 [1]: 0.208 µg/mL
IC50 [2]: 8.18 µg/mL
B2: ADI-66716 (antibody, V domains shown)
VH: QLQLQESGPGLVKPSETLSLTCTVSGGSISSSDYYWGWIRQPPGKGLEWIGSIYYSGSTYYNPSLKSRVTISVDTSKNQFSLKLSSVTAADTAVYYCARGPHRQVFDYWGQGTLVTVSS
VL: B1 VL with D30S, H90Q, A91G, Y92S
